Experimental findings from patent US20210253718A1 (MODMAB THERAPEUTICS, published 2021) are described below.

In assay [1] the target is T1, FZD3 cysteine-rich domain (CRD), MYC-tagged and GPI-anchored on CHO cells (human, UniProt Q9NPG1 24-150, GPI anchor).
T1 construct: domain: cysteine-rich domain (CRD); also called FZD3 CRD; CHO-myc-FZDGPI; not shown: MYC tag and GPI anchor signal
T1 sequence (looked up): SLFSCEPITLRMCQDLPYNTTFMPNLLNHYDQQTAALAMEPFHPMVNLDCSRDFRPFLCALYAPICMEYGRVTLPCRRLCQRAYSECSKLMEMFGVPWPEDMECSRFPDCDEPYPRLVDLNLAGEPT
Put plainly: flow cytometry, CHO-CRD cells.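 Also: flow cytometry of Fab binding to CHO cells overexpressing a Frizzled CRD, with binding defined as median fluorescence over twice that of CHO cells lacking any Frizzled CRD.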 A general note: A flow cytometer gives signals particle by particle.

Assay [2] addresses T2, FZD4 cysteine-rich domain (CRD), MYC-tagged and GPI-anchored on CHO cells (human, UniProt Q9ULV1 42-167, GPI anchor).
T2 construct: also called FZD4 CRD; CHO-myc-FZDGPI; not shown: MYC tag and GPI anchor signal
T2 sequence: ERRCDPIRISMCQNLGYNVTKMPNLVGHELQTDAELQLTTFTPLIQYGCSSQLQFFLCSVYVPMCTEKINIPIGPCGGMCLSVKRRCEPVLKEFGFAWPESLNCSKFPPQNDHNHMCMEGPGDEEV
The assay can be described thus: flow cytometry, CHO-CRD cells.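 Also: flow cytometry of Fab binding to CHO cells overexpressing a Frizzled CRD, with binding defined as median fluorescence over twice that of CHO cells lacking any Frizzled CRD.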

Assay [3] has as its target T3, FZD5 cysteine-rich domain (CRD), MYC-tagged and GPI-anchored on CHO cells (human, UniProt Q13467 29-156, GPI anchor).
T3 construct: also called FZD5 CRD; CHO-myc-FZDGPI; not shown: MYC tag and GPI anchor signal
T3 sequence: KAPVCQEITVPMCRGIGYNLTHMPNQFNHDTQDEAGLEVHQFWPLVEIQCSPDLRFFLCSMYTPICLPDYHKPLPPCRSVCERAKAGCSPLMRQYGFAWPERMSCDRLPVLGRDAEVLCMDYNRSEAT
Put plainly: flow cytometry, CHO-CRD cells.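 Also: flow cytometry of Fab binding to CHO cells overexpressing a Frizzled CRD, with binding defined as median fluorescence over twice that of CHO cells lacking any Frizzled CRD.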

For assay [4], the target named is T4, FZD6 cysteine-rich domain (CRD), MYC-tagged and GPI-anchored on CHO cells (human, UniProt O60353 20-146, GPI anchor).
T4 construct: also called FZD6 CRD; CHO-myc-FZDGPI; not shown: MYC tag and GPI anchor signal
T4 sequence: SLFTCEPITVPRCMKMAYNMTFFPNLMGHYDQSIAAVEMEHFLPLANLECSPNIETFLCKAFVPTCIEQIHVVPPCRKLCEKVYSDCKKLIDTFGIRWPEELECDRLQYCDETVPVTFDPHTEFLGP
The assay can be described thus: flow cytometry, CHO-CRD cells.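 Also: flow cytometry of Fab binding to CHO cells overexpressing a Frizzled CRD, with binding defined as median fluorescence over twice that of CHO cells lacking any Frizzled CRD.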

In assay [5] the target is T5, FZD8 cysteine-rich domain (CRD), MYC-tagged and GPI-anchored on CHO cells (human, UniProt Q498S8 31-155 (rat entry), GPI anchor).
T5 construct: also called FZD8 CRD; CHO-myc-FZDGPI; not shown: MYC tag and GPI anchor signal
T5 sequence: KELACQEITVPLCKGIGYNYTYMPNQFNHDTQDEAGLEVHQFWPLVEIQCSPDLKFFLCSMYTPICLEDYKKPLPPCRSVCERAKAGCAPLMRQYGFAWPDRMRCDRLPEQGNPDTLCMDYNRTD
Put plainly: flow cytometry, CHO-CRD cells.

Assay [6] has as its target T6, FZD9 cysteine-rich domain (CRD), MYC-tagged and GPI-anchored on CHO cells (human, UniProt O00144 35-161, GPI anchor).
T6 construct: also called FZD9 CRD; CHO-myc-FZDGPI; not shown: MYC tag and GPI anchor signal
T6 sequence: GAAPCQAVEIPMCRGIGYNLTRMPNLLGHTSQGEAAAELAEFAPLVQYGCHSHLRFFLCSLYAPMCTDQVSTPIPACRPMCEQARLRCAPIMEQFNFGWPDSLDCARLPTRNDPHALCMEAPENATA
The assay can be described thus: flow cytometry, CHO-CRD cells.

Assay [7] has as its target T7, FZD10 cysteine-rich domain (CRD), MYC-tagged and GPI-anchored on CHO cells (human, UniProt Q9ULW2 30-156, GPI anchor).
T7 construct: also called FZD10 CRD; CHO-myc-FZDGPI; not shown: MYC tag and GPI anchor signal
T7 sequence: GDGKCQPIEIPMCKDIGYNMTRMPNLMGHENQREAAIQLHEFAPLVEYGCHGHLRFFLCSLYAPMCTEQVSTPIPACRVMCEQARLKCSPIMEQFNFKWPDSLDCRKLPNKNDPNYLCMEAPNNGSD
Put plainly: flow cytometry, CHO-CRD cells.

For assay [8], the target named is T1, FZD3 cysteine-rich domain (CRD), …. Put plainly: immunofluorescence, CHO-CRD cells.
For assay [9], the target named is T2, FZD4 cysteine-rich domain (CRD), …. The assay can be described thus: immunofluorescence, CHO-CRD cells.
Assay [10] concerns the target T4, FZD6 cysteine-rich domain (CRD), …. The assay can be described thus: immunofluorescence, CHO-CRD cells.
Assay [11] concerns the target T6, FZD9 cysteine-rich domain (CRD), …. Put plainly: immunofluorescence, CHO-CRD cells.
The target of assay [12] is T7, FZD10 cysteine-rich domain (CRD), …. Put plainly: immunofluorescence, CHO-CRD cells.
In assay [13] the target is FZD1 cysteine-rich domain (CRD), MYC-tagged and GPI-anchored on CHO cells (human). The assay can be described thus: flow cytometry, CHO-CRD cells.
Experimental: (§1) Binding was measured via flow cytometry analysis of CHO cells overexpressing CRD of FZD1, FZD2, FZD3, FZD4, FZD5, FZD6, FZD7, FZD8, FZD9 or FZD10. Median fluorescence values are shown.
Assay [14] addresses FZD7 cysteine-rich domain (CRD), MYC-tagged and GPI-anchored on CHO cells (human, UniProt O75084 45-169). The assay can be described thus: flow cytometry, CHO-CRD cells.
Experimental: as §1

B1: Fab-2900 (Fab, V domains shown)
VH: EVQLVESGGGLVQPGGSLRLSCAASGFNLSSYYIHWVRQAPGKGLEWVASISSSSSSTSYADSVKGRFTISADTSKNTAYLQMNSLRAEDTAVYYCARGALDYWGQGTLVTVSS
VL: DIQMTQSPSSLSASVGDRVTITCRASQSVSSAVAWYQQKPGKAPKLLIYSASSLYSGVPSRFSGSRSGTDFTLTISSLQPEDFATYYCQQWYSGSSLFTFGQGTKVEIK
notes: Fab; also called Fv-2900
As for B1, the median fluorescence in [1] came out at 4.26; in [2], 5.62; in [3], 38.2; in assay [4] it was 3.37; in assay [5], 23.3; in assay [6], 3.01. The median fluorescence in [7] was 3.25. Also, the binding result in [8], in assay [9], in assay [10], in assay [11] and in [12] was “no binding” each time.

B2: Fab-2925 (Fab, V domains shown)
VH: EVQLVESGGGLVQPGGSLRLSCAASGFNLSYSSMHWVRQAPGKGLEWVASIYPSYGSTYYADSVKGRFTISADTSKNTAYLQMNSLRAEDTAVYYCARYGYFGLDYWGQGTLVTVSS
VL: DIQMTQSPSSLSASVGDRVTITCRASQSVSSAVAWYQQKPGKAPKLLIYSASSLYSGVPSRFSGSRSGTDFTLTISSLQPEDFATYYCQQAWVYASLFTFGQGTKVEIK
notes: Fab; also called Fv-2925
B2: the median fluorescence in [1] is 3.92; in [2], 4.53; in assay [3], 37.5; in assay [4], 3.05; in assay [6], 3.31; in assay [7] it was 4.53. For the same molecule, the binding result in assay [8], in assay [9], in assay [10], in assay [11] and in [12] was “no binding” throughout.

B3: Fab-2932 (Fab, V domains shown)
VH: EVQLVESGGGLVQPGGSLRLSCAASGFNISYSYMHWVRQAPGKGLEWVASIYSSYSSTSYADSVKGRFTISADTSKNTAYLQMNSLRAEDTAVYYCARGALDYWGQGTLVTVSS
VL: DIQMTQSPSSLSASVGDRVTITCRASQSVSSAVAWYQQKPGKAPKLLIYSASSLYSGVPSRFSGSRSGTDFTLTISSLQPEDFATYYCQQWYGSFALITFGQGTKVEIK
notes: Fab; also called Fv-2932
For the molecule B3, the median fluorescence in [13] came to 16.6; in assay [1], 3.85; in assay [2], 4.26; in [3], 29.4; in assay [4], 3.11; in assay [14], 34.3. Further, the median fluorescence in assay [5] is 28.9; in [6] it was 3.62; in assay [7] it was 3.82. The binding result in assay [8], in [9], in assay [10], in assay [11] and in [12] was “no binding” each time.

B4: Fab-2903 (Fab, V domains shown)
VH: EVQLVESGGGLVQPGGSLRLSCAASGFNLSYYYIHWVRQAPGKGLEWVASIYPYSSYTSYADSVKGRFTISADTSKNTAYLQMNSLRAEDTAVYYCARGAIDYWGQGTLVTVSS
V domain: DIQMTQSPSSLSASVGDRVTITCRASQSVSSAVAWYQQKPGKAPKLLIYSASSLYSGVPSRFSGSRSGTDFTLTISSLQPEDFATYYCQQWGGGSSLFTFG
notes: Fab; also called Fv-2903
As for B4, the median fluorescence in assay [13] is 8.66; in assay [1], 4.18; in assay [2], 5.52; in assay [3], 34.9; in assay [4], 3.52; in assay [14], 8.58. The median fluorescence in assay [5] is 13.7; in assay [6], 3.11; in [7], 3.05. Also, the binding result in assay [8], in assay [9], in [10], in [11] and in [12] was “no binding” throughout.

B5: Fab-2905 (Fab, V domains shown)
VH: EVQLVESGGGLVQPGGSLRLSCAASGFNLSYYYMHWVRQAPGKGLEWVASIYSSYSYTSYADSVKGRFTISADTSKNTAYLQMNSLRAEDTAVYYCARSGYALDYWGQGTLVTVSS
VL: DIQMTQSPSSLSASVGDRVTITCRASQSVSSAVAWYQQKPGKAPKLLIYSASSLYSGVPSRFSGSRSGTDFTLTISSLQPEDFATYYCQQSSWYYGYPFTFGQGTKVEIK
notes: Fab; also called Fv-2905
Regarding B5, the median fluorescence was 4.1 in [1]; 4.57 in [2]; 24.8 in [3]; 3.22 in assay [4]; 3.25 in assay [6]; 3.31 in assay [7]. For the same molecule, the binding result in [8], in [9], in [10], in assay [11] and in [12] was “no binding” each time.

B6: Fab-2931 (Fab, V domains shown)
VH: EVQLVESGGGLVQPGGSLRLSCAASGFNLSYSSMHWVRQAPGKGLEWVAYISPYSGSTYYADSVKGRFTISADTSKNTAYLQMNSLRAEDTAVYYCARGSYWYVGGGWWVSGHGGMDYWGQGTLVTVSS
VL: DIQMTQSPSSLSASVGDRVTITCRASQSVSSAVAWYQQKPGKAPKLLIYSASSLYSGVPSRFSGSRSGTDFTLTISSLQPEDFATYYCQQSSYSLITFGQGTKVEIK
notes: Fab; also called Fv-2931
For B6, the median fluorescence was 3.49 in [1]; 3.65 in assay [2]; 28.1 in [3]; 2.89 in assay [4]; 2.76 in [6]; 2.59 in [7]. Further, the binding result in [8], in [9], in assay [10], in assay [11] and in [12] was “no binding” throughout.
